Experimental data as given in paper PMC5632138 (Journal of molecular biology, 2017).

How the values were obtained:
[1] = target: T1, Full-length ETV4 (ETV4^1–484) (UniProt P43268 1-484); assay: BLI
T1 sequence (looked up): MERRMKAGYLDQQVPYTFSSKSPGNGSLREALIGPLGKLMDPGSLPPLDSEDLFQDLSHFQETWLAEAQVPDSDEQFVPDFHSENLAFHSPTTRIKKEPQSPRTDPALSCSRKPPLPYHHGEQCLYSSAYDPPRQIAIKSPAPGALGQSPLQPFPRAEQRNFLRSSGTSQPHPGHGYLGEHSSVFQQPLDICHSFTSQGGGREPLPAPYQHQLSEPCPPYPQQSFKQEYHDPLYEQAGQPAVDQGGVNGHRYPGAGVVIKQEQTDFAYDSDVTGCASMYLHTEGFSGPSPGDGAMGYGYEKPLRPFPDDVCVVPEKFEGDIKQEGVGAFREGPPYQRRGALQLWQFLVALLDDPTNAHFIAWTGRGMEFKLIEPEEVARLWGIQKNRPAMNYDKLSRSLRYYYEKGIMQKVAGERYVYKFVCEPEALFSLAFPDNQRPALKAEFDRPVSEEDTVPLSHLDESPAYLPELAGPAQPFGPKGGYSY

Full-length FOS = Full-length FOS (UniProt P01100 1-380); assay: BLI
Sequence of Full-length FOS (P01100 whole entry): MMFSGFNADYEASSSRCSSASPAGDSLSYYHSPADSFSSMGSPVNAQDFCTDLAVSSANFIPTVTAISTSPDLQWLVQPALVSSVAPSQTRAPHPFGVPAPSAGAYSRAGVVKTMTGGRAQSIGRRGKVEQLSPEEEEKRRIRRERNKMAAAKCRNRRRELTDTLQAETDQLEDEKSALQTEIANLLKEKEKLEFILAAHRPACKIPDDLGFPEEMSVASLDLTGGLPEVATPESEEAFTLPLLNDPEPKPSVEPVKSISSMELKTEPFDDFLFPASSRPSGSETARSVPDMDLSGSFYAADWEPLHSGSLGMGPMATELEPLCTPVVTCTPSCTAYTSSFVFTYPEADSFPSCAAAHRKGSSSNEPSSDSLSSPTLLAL

Kd [1]: 5 nM | Kd (Full-length FOS): 9 nM
B1: MED25 ACID (residues 391–553), biotinylated ligand for biolayer interferometry (domain or fragment, human, UniProt Q71SY5 391-553, looked up)
chain: GQQSVSNKLLAWSGVLEWQEKPKPASVDANTKLTRSLPCQVYVNHGENLKTEQWPQKLIMQLIPQQLLTTLGPLFRNSRMVQFHFTNKDLESLKGLYRIMGNGFAGCVHFPHTAPCEVRVLMLLYSSKKKIFMGLIPYDQSGFVNGIRQVITNHKQVQQQKLE
modifications: biotin (biotinylated; D-biotin added at the induction point)
